This test concerns the target T1, MGN (MEGANE), yeast two-hybrid fusion (mouse, UniProt Q7TS99 1-240).
T1 construct: The two Gal4 domains are alternatives: one fusion as bait (BD), another as prey (AD); also called Helt; BD-MGN; source: yeast two-hybrid fusion
T1 sequence (looked up): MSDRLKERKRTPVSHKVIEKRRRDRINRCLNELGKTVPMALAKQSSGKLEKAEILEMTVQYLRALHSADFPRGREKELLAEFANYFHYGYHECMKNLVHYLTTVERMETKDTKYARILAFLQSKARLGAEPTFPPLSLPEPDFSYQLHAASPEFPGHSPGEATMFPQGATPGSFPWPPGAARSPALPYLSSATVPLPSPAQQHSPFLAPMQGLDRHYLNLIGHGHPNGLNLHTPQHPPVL
Description: two-hybrid; quantitative β-galactosidase assay on liquid cultures (X-gal; in parallel ONPG, absorbance at 420 nm), five independent transformants per pair, normalised against cell density and dilution. Particulars: partners not purified.

B1: MASH1, yeast two-hybrid fusion (natural protein, mouse, UniProt Q02067 1-231, looked up)
chain: MESSGKMESGAGQQPQPPQPFLPPAACFFATAAAAAAAAAAAAQSAQQQQPQAPPQQAPQLSPVADSQPSGGGHKSAAKQVKRQRSSSPELMRCKRRLNFSGFGYSLPQQQPAAVARRNERERNRVKLVNLGFATLREHVPNGAANKKMSKVETLRSAVEYIRALQQLLDEHDAVSAAFQAGVLSPTISPNYSNDLNSMAGSPVSSYSSDEGSYDPLSPEEQELLDFTNWF
notes: The two Gal4 domains are alternatives: one fusion as bait (BD), another as prey (AD); also called Ascl1; MASH1-AD; source: yeast two-hybrid fusion
On to B1, for which the “fold β-galactosidase activity (strength of interaction) over the MASH1/MASH1 homodimer” value worked out at 4 fold and the “fold β-galactosidase activity (strength of interaction) over the MGN/MGN homodimer” value came to 4.4 fold.

(Values after article PMC4439124, “Hairy/Enhancer-of-Split MEGANE and Proneural MASH1 Factors Cooperate Synergistically in Midbrain GABAergic Neurogenesis” (PLoS ONE, 2015).)
